From article doi:10.1101/2025.07.16.665153 come the findings set out here.

The target in this assay is endogenous MpUVR8 of Marchantia polymorpha (Marchantia polymorpha (endogenous in Tak-1 gemmalings)). Put plainly: cross-linking.

On to “endogenous MpUVR8 of Marchantia polymorpha (natural protein)”, for which the stoichiometry N came out at 2.
